According to article PMC2670981, “Divergence of Catalytic Mechanism within a Glycosidase Family Provides Insight into Evolution of Carbohydrate Metabolism by Human Gut Flora” (Chemistry & Biology, 2008):

System: O=[N+]([O-])c1ccc(O[C@H]2O[C@H](CO)[C@@H](O)[C@H](O)[C@H]2O)c([N+](=O)[O-])c1
Test: purified protein
Conditions: Ca2+

## BtGH97a (Bacteroides thetaiotaomicron VPI-5482)
  Km: 140 ± 10 µM
  kcat: 280 ± 7 s⁻¹
  kcat/Km: 2e+06 M⁻¹ s⁻¹
